Experimental data reported in the DeepSol protein solubility set.

test: soluble on expression in E. coli; label from the status in PepcDB or PDB records

| Sequence | soluble on expression in E. coli |
| --- | --- |
| MARRIGHPYQNRTPPKRKKPRTSFTRIQVAELEKRFHKQKYLASAERAALARGLKMTDAQVKTWFQNRRTKWRRQTAEEREAERQAANRLMLS | soluble |
| MAHHHHHHMQSTGGLPFYGNLYAGRVDSQNYVPPRQGGSGLLEVDKSLWDNPATRQKLQSCPYFALSDQVMFHNMDPVYLDPGLLSPEEHQLLLLFSRAYYEKWSVIHRRPPHALPRLRITYGSSKLLDEILFLLDVHPDVCEVLKKEYAVDDSTLIGMNPNLWSSAYLDPANMDHLSGRVLEFAGVPEPKRTKFFLLLDQMRRIKVHRRDLPNSEERVDVVPFCYGVTLYDFCKFLGITPYSGQLKVYDYVDLQGTARSETLKDEDSYFDYLVALFYRADVRSATLTDLADASDHTCRYTVTVEPFTTADRRVGRWF | soluble |
| MAHHHHHHMKHIATQHHRGVVADPQPIHRNTRRAVKVQTRPRDQPRDREAVPADRDVRVRWKITLRAEQRVTKCVTGDDDVQRPHSGVRIAQQQQHGAVPPRASIERDVRHVARHRTNQHRQAHAAPAERHVAVAQPRQPAAHSLRNLGVHHVADALTNRRWRWCGRRWRWRWRRGQWRRASRHRRRDARIAVPSSSALALAANDRRRQRCKAVALLRALPARSNRRHVGDAVELQLCRRRQQTSRDRQAPSNEPVTGVNPR | not soluble |
| MGSDKIHHHHHHMRKKLISILVDGVSADTFEKHAHRLPNMRHLAERGLRVRRLKSAVPATSVPGRATMLTGVGPETHGIYGNHIFRGDASVAPLAEDLLVPTIATHARQAGLDVAAIGQALVNPRDTSVYVSPWWLRGFMTGYRFSKMVTPEALAASRAIHDPEDRLAKAGLTEMDAFRDAADGGAPHLISGLALDQFLNRAVVALLGSDRPPDLLLTEIEMPDAFQHYLGYDSPAGIWSVEFADMLIGNLLAVLERTGRREDYVIAVASDHGHGFVDTAIFPEAIIPDMHWMTEGASLYVSLKAAGDLERVTERLLPYGVELWNDHHVPENLRGTVAMFVAPPRHSFEERPSDASGPLVATGSPHLISTHGFRPGSPEDDRMFILSGGGIAPKVIKAADADQFAPTLASVLGLPLEPYAGRSLIAEESPIARSPQSLELHLK | not soluble |
| MAHHHHHHMDYAAAIKQQAEDLQDELKDLALWQEEVARQHEVNKMKKSATFVTNSVPPIRGTVPSLKEAVLKSAGVVEKEDPVKKQKDKGNELFQSGKLQEAVEAYAVGIDLDPEGPMAHVLYGNRALCYLKLERWSDAERDASSCVRLNRTYAKGYFRRATARKQLGNLKGARTDLEAVLALSPNDVSATNEMSLVTKMIRADRDGAEPVTRKKIVITEVDDDDDEQCVGEGAQDKTASPSVIESNTGRHPNTVGDQVVKNEIAELERFRAAQRDAQEARSRERETKLQYKGRTSSRVEIVEEINNESKEGVVVSSSPLSLNNGVTSASAQECPSRELAAVSTSGAAQRPATFKDKKMNEPVVPRMLKPTVKWTKDTLKAPKSFTEFERVFLDLKDDEELLCFYVSVIPPGSMQVLFGSNMTPDILLGMLKAAGRLSGTSTVSFLKGLCTVKRVRDISLFFDDCEKKVVEEVMDVVVSCGASDEDVSLFRRQLGVI | soluble |
| MCIAIPGKMTAIVDENTATIDMGGICRDVNMALMGGAEESMIGKHFLVHVGYAISEISEEESEETMRLLKIMAGLEEIDSFE | soluble |
| MGSDKIHHHHHHVRFATKFDLLSHIRLNAALTSARFDAEQGLWLLRLENGEQLKASFFICSAGPLSEPRYPDIPGMDTYEGRLFHSARWDHDYPLNGKRVAVIGTAASAVQIIPHIAPLAARLYVCQRSPNWIIPRLNHVYAPWEKALFRLKPIAKTNRFLLYWLHEMNRLSFNPGGFMARIGRELAEWHLRRQVIDPRLRGALRPGYPLGCKRVLLSNDYYPTLMRPNVELIDTPIDRIDPGGIVTRDGQKREVDVIICATGFNVKRMLSVEIRGLQGYRLNEAWAREPKAYQGVTVASFPNLFILLGPNTGQGHTSAILFIEAQVNYALKCIQEIARQQKRFLSVKPEAMNRYNEELQKTLSTSVWAAGCRSWYKTESGKIIGIYPGFSFQYAKQLREPRFEDYVMC | not soluble |
| MSLDENIVKTGSNEMELVDFRIFKQGHDKVYEGIYGVNVSKVREIIKIPSLTELPGVPDYIEGIFDLRGVVIPVVNLAKWMQITEPESTMLKPRVIITEFSNILIGFIVHEAKRIRRINWKDIEPATFSTGSGALDKGKITGVTRIENDEVLLILDLESVVEDLGIYAPKTDIDFGKIEKFTGTALILDDSMTARKRVKEMMQQMGFQVVEAKDGVEGINKLEELSQIYGESLNDTLKIIVSDVEMPQMDGFHFAARIKEDPRFKDIPIVFNSSLSNEFMNEKGVQEAGGEGYLVKFNASDFFNEIAKVIKKHQSQEGHHHHHH | soluble |
| MGSDKIHHHHHHMPNMGIEKLYVSQQLTDSAAGMTFTKPQYYKYVQELSLKPKVNSASAYAENRKVDQDTQFDSCDVSINLFQMTSSQRAFMLGQSLAGGGGAIGALNDKAPWITLLYKAPIKVDDTIYYRYGVIYKTQFQPPDDDYKTTEGKPDFSQVPKISGSAQPTEWSFKDGKLEKHPWEWHVDTCDPNCPENIDDTWFNSVSIPSLVTYGSLSLSASSPKDGATGISLDTKPSLTFNNPIMNATSILLYNVSDGATVNTTTSSDSSGKIITITPSTNLVANKNYVLVVQDVTDLYGQTLDTQLIRFTTATAAS | not soluble |
| MSHAVSRLRDLRMARVAKPFFARGSRAERCPRCRVIPSHCLCAWRPKVVARSAMCLVMHDVEPLKPSNTGWLIADVIGDTTAFSWSRTEVDPQLLALLADPQWQPYIVFPGEFVAPERVVSEVRQEEGKRPLFILLDATWSEARKMFRKSPYLEHLPVLSLSPEKLSRYKLRRSKRDDHFCTAEVAALCLELAGDEQVSQVLDAYLDVFSTHYLSAKFQKAIDPDDDVHARLKPFVLEHHHHHH | not soluble |
| MRGSTRDQNGTWEMESNENFEGYMKALDIDFATRKIAVRLTQTKVIDQDGDNFKTKTTSTFRNYDVDFTVGVEFDEYTKSLDNRHVKALVTWEGDVLVCVQKGEKENRGWKQWIEGDKLYLELTCGDQVCRQVFKKKLVPR | soluble |
| MDEGDKKSPISQVHEIGIKRNMTVHFKVLREEGPAHMKNFITACIVGSIVTEGEGNGKKVSKKRAAEKMLVELQKL | soluble |
| MRILFIGDVVGSPGRDMVKEYVPKLKTKYKPHFTIINGENAAHGKGLTEKIYHSLIQSGADAITMGNHTWDKKEIFDFIDDVPNLVRPANFPEGTPGKGITYVKANGKELAVINLQGRTFLPPLDDPFLKADELSPEAAKRTPYIFIDFHAEATSEKLALGWYTDGRASAVVGTHTHVQTADNRILPKGTAYITDVGMTGPYDGILGMDRETIIKRFKTNLPVRFTVAEGKTTLSGVVIDIDDQTKKAVKIERILINDDHMFFE | soluble |
| MGYSSDTTPCCFAYIARPMPRAHIKEYFYTSGKCSNPAVVFVTRKNRQVCANPEKKWVREYINSLEMS | soluble |
| MKQSKIIVAGIGPGSEQDITPAVLAAVREADVVVGYKYYFRFIRDFVRPDAECIDTGMKRERARAEQAFEYAEQGKTVCVISSGDAGIYGMTPLIYEMKRERQSNVEIIALPGISAFQKAASLLGAPIGHDFCVISLSDLMTPWERIERRILAAAQADFVTAVYNPKSDGRYWQIYRLREIFLREGRSPETPVGYVRQAGREEQEIHITTLAAFDPETVDMFTVVLIGNSQTYTFNQNIITPRGYYRETRSEATGIGQDIMIRSFRTIETELKNRDIPLDRKWALLHAIHTTADFEMERLLYTDPNAVASLYDAIRTGNLRTIVTDVTMAASGIRKGALQRLGVEVKCYLNDERVAEMATSKGITRTQAGIRLAVEEHPDALFVFGNAPTALMELCDLIRKEKAQPAGIVAAPVGFVHVEESKHMTKPFTHIPKLIVEGRKGGSNLAATLVNAILCYPDAEQLRPGRDV | soluble |
| MGSDKIHHHHHHMTVQSSDVIAPPAPRTLPDTGLSLVMLRDILLKTMFRMNLELVSQIAPVICLPAPLAQELVDLARSQRLVEATGTLHATSGNEMGYQLTDQGKARALDALSQSEYYGAMPVPLDRYRLQVERQSVRHIKLTRAQLTAAMGHLILPDELLDHLGPAVTSGRSILMYGPPGNGKSSISNGIRDALGDRIYVPRALEYSGQVITVYDPIVHRSAESAVDDPTSLRRTSNRFDNRYVWCERPTVITGGELTLDMLDLTYNPVARTYQAPLQLKATGGIFIVDDLGRQAEPPQKLVNRWIVPLEENRDILALQSGEKFTVPFDTLVIFSTNFHPNEIFDGAALRRIFFKIKVDGPSQENFLKIFAMVAKKRKMPLDETALVHLMKAKFPTIDNRYANYMPVYLIDQMISVCDFEGLPYQMTPALIDRAWSNMFVRDEVIAK | not soluble |
| MTPLVKDIIMSSTRMPALFLGHGSPMNVLEDNLYTRSWQKLGMTLPRPQAIVVVSAHWFTRGTGVTAMETPPTIHDFGGFPQALYDTHYPAPGSPALAQRLVELLAPIPVTLDKEAWGFDHGSWGVLIKMYPDADIPMVQLSIDSSKPAAWHFEMGRKLAALRDEGIMLVASGNVVHNLRTVKWHGDSSPYPWATSFNEYVKANLTWQGPVEQHPLVNYLDHEGGTLSNPTPEHYLPLLYVLGAWDGQEPITIPVEGIEMGSLSMLSVQIGLEHHHHHH | soluble |
| VLGSSSTDAIGPGSVFQIDATVADVYLVSRFNRTHIIGRPVLYIVQDCFSKLIVGLYVGLEGPSWIGAAMALANTAGNKVSFCSQYGIDIQEEEWPVHHLPQAILADRGEMLSDNAESLIMNLGITVKNTPPFRADWKPLVERYFKLTNERTKSLLPGAVNTDFMQRGGRDYRLDAKLDLMQFTAIIIKCALFHNNHYRIDNYNKDEMMVADEVEPIPREIWNWGIANRMGKLRHVDEEVVKLNLMPSDNGVVTAKGIRFKGLFYSSKSSMKEQWFVKARSSGSWKVPVSYDPRNMNYIYIKKSATEFEKCYLLEYQTAFKDKYIEEIEYLMEWEKMQKAKSLDEGLQAKADLITEIETIVEGAKSKTNKELSLSTESDAQRKKNIRQNRQVEKEINREIEAFELDRQPNNKNAEIISLNELEEELPSNPLDLLRRKQREMLGKINE | not soluble |
| MSLNVMYKNSCPNCGGDISGDRLLNGLPCEACLPYINGIDDVDHISKVKTLYNILLNNDKIKNYWNLYYNITTFETVFKYFRDKTGYEPWSLQKLWLRRLASNQSFTMSAPTGLGKTTTLMTYSVFIGQDVVYIVPTKSLMEQVCKRLEKLGAQVSCGKIDQKKVSVITISYLNKNADSIVSLKPNFVVIDDADAVIKSGKTTDRLVSLLGIPKDVYESAIQLIRLRNKYYFSNEYTEEVKEKIRELELKIAEFKDKISQLVIASATIRPKGIKQKALRLLTGFEPSSIQLYARNIIDAYTENLDLSIVKELGSGGLILVSKEYGRSKLNEIKKYVEDLGFNAKLAISGRKFLDDFSQGKVDILVGSASYYGVAVRGIDEPKRLKYVIYYGVPKIRAKLFDALSNPFTLLRVGKLIGIDFSKLQNKILILNPSEVQLLKFSIIKGEGHHHHHH | not soluble |
| MLTVKQIEAAKPKEKPYRLLDGNGLYLYVPVSGKKVWQLRYKIDGKEKILTVGKYPLMTLQEARDKAWTARKDISVGIDPVKAKKASSNNNSFSAIYKEWYEHKKQVWSVGYATELAKMFDDDILPIIGGLEIQDIEPMQLLEVIRRFEDRGAMERANKARRRCGEVFRYAIVTGRAKYNPAPDLADAMKGYRKKNFPFLPADQIPAFNKALATFSGSIVSLIATKVLRYTALRTKELRSMLWKNVDFENRIITIDASVMKGRKIHVVPMSDQVVELLTTLSSITKPVSEFVFAGRNDKKKPICENAVLLVIKQIGYEGLESGHGFRHEFSTIMNEHEWPADAIEVQLAHANGGSVRGIYNHAQYLDKRREMMQWWADWLDEKVE | soluble |
